Among the data in PMC10949841 (2024) are Kd values, retold here.

The assay has as its target T1, HAdV-C5 hexon labeled with AlexaFluor594 (human adenovirus C5 (HAdV-C5), UniProt P04133 1-952, AlexaFluor594 label (sites not given)).
T1 chain: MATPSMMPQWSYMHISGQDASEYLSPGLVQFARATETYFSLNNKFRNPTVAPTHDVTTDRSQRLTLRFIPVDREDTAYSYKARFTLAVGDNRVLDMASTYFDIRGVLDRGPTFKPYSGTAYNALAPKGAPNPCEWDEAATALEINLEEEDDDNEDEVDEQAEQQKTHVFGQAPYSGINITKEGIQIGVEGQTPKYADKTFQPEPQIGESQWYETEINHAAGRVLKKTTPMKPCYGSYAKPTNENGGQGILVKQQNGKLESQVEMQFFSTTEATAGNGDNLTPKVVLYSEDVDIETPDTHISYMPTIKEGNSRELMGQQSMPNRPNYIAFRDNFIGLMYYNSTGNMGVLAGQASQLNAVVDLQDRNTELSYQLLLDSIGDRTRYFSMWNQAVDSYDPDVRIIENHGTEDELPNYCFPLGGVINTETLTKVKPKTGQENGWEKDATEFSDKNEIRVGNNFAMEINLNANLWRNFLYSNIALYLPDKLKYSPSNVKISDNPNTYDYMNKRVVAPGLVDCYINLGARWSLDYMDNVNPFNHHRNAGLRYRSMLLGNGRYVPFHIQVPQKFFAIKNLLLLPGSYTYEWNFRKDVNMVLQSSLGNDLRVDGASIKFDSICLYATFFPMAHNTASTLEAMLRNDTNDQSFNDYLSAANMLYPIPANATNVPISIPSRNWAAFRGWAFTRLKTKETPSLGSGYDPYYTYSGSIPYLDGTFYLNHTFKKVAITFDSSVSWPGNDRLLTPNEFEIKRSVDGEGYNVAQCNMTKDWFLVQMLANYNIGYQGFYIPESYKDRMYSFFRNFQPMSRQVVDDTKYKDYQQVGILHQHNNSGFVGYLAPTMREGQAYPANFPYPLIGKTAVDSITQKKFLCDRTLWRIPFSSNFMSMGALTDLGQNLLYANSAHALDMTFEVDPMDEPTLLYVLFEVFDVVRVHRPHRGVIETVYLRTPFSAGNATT
The assay can be described thus: MST.

B1: hLF mut2 (R27A) (natural protein)
chain: GRRRSVQWCAVSQPEATKCFQWQRNMAKVRGPPVSCIKRDSPIQCIQAIAENRADAVTLDGGFIYEAGLAPYKLRPVAAEVYGTERQPRTHYYAVAVVKKGGSFQLNELQGLKSCHTGLRRTAGWNVPIGTLRPFLNWTGPPEPIEAAVARFFSASCVPGADKGQFPNLCRLCAGTGENKCAFSSQEPYFSYSGAFKCLRDGAGDVAFIRESTVFEDLSDEAERDEYELLCPDNTRKPVDKFKDCHLARVPSHAVVARSVNGKEDAIWNLLRQAQEKFGKDKSPKFQLFGSPSGQKDLLFKDSAIGFSRVPPRIDSGLYLGSGYFTAIQNLRKSEEEVAARRARVVWCAVGEQELRKCNQWSGLSEGSVTCSSASTTEDCIALVLKGEADAMSLDGGYVYTAGKCGLVPVLAENYKSQQSSDPDPNCVDRPVEGYLAVAVVRRSDTSLTWNSVKGKKSCHTAVDRTAGWNIPMGLLFNQTGSCKFDEYFSQSCAPGSDPRSNLCALCIGDEQGENKCVPNSNERYYGYTGAFRCLAENAGDVAFVKDVTVLQNTDGNNNEAWAKDLKLADFALLCLDGKRKPVTEARSCHLAMAPNHAVVSRMDKVERLKQVLLHQQAKFGRNGSDCPDKFCLFQSETKNLLFNDNTECLARLHGKTTYEKYLGPQYVAGITNLKKCSTSPLLEACEFLRK
With B1, binding was put at a Kd of 0.167 µM.

B2: hLF mut6 (K277S/K280A/K285S) (natural protein)
chain: GRRRSVQWCAVSQPEATKCFQWQRNMRKVRGPPVSCIKRDSPIQCIQAIAENRADAVTLDGGFIYEAGLAPYKLRPVAAEVYGTERQPRTHYYAVAVVKKGGSFQLNELQGLKSCHTGLRRTAGWNVPIGTLRPFLNWTGPPEPIEAAVARFFSASCVPGADKGQFPNLCRLCAGTGENKCAFSSQEPYFSYSGAFKCLRDGAGDVAFIRESTVFEDLSDEAERDEYELLCPDNTRKPVDKFKDCHLARVPSHAVVARSVNGKEDAIWNLLRQAQESFGADKSPSFQLFGSPSGQKDLLFKDSAIGFSRVPPRIDSGLYLGSGYFTAIQNLRKSEEEVAARRARVVWCAVGEQELRKCNQWSGLSEGSVTCSSASTTEDCIALVLKGEADAMSLDGGYVYTAGKCGLVPVLAENYKSQQSSDPDPNCVDRPVEGYLAVAVVRRSDTSLTWNSVKGKKSCHTAVDRTAGWNIPMGLLFNQTGSCKFDEYFSQSCAPGSDPRSNLCALCIGDEQGENKCVPNSNERYYGYTGAFRCLAENAGDVAFVKDVTVLQNTDGNNNEAWAKDLKLADFALLCLDGKRKPVTEARSCHLAMAPNHAVVSRMDKVERLKQVLLHQQAKFGRNGSDCPDKFCLFQSETKNLLFNDNTECLARLHGKTTYEKYLGPQYVAGITNLKKCSTSPLLEACEFLRK
Take B2: the Kd – broadly, the equilibrium constant for the complex coming apart – turned out to be 0.585 µM.
